From patent publication US20240252641A1 (published 2024)

T1: human CD70, recombinant, N-terminally biotinylated (residues 39-193) (human, UniProt P32970 39-193, N-terminal biotin)
T1 chain: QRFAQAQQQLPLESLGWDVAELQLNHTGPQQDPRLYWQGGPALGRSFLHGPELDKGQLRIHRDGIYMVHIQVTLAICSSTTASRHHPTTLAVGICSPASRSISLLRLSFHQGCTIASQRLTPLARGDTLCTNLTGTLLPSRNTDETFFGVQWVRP

B1: 50-TC7-III-A11 (scFv)
scFv: QVQLVQSGAEVKRPGASVKVSCKASGYTFTSYYMHWVRQAPGQGLEWMGIINPSGGSTSYAQKFQGRVTMTRDTSTSTVYMELSSLRSEDTAVYYCAIEPGYCSGGSCYPDAFDIWGQGTTVTVSSGGSGGSGGSGGSQSVLTQPPSASGTPGQRVTISCSGSSSNIGSDYVYWYQRVPGTAPKLLIYRDNQRPSGVPDRFSGSKSGTSASLAISGLRSDDEADYYCAAWDDSLSGWVFGGGTKVTVL
B2: 39-TC6-IV-B08 (scFv)
scFv: QVQLVESGGGVVQPGGSLRLSCAASGFTFSSYAMHWVRQAPGKGLEWVAVISYDGSNKYYADSVKGRFTISRDNSKNTLYLQMNSLRAEDTAVYYCARDGHPYYYGMDVWGQGTTVTVSSGGSGGSGGSGGSQSALTQPASVSGSPGQSITISCTGTSSDVGDYNYVSWYQHHPGKAPKLMIYDVSNRPSGVSNRFSGSKSGNTASLTISGLQAEDEADYYCGSYTGSDTWVFGGGTKVTVL
B3: 1-TC4-I-C10 (scFv)
scFv: EVQLVQSGAEVKKPGESLKISCKGSGYSFTSYWIGWVRQMPGKGLEWMGIIYPGDSDTRYSPSFQGQVTISADKSISTAYLQWSSLKASDTAMYYCAISRTESYVMDVWGQGTTVTVSSGGSGGSGGSGGSQSALTQPRSVSGSPGQSVTISCTGTSSDVGGYNYVSWYQQHPGKAPKLMIYDVTNRPSGVPDRFSASKSDNTATLTVSGVQAEDEADYYCSSYAGSHELFGGGTKLTVL
B4: CD70 (ligand)
chain: QRFAQAQQQLPLESLGWDVAELQLNHTGPQQDPRLYWQGGPALGRSFLHGPELDKGQLRIHRDGIYMVHIQVTLAICSSTTASRHHPTTLAVGICSPASRSISLLRLSFHQGCTIASQRLTPLARGDTLCTNLTGTLLPSRNTDETFFGVQWVRP
modifications: N-terminal biotin
B5: human CD27 fused to human Fc domain (Fc fusion)
chain: TPAPKSCPERHYWAQGKLCCQMCEPGTFLVKDCDQHRKAAQCDPCIPGVSFSPDHHTRPHCESCRHCNSGLLVRNCTITANAECACRNGWQCRDKECTECDPLPNPSLTARSSQALSPHPQPTHLPYVSEMLEARTAGHMQTLADFRQLPARTLSTHWPPQRSLCSSDFIRI
B6: R3P5A1 VHH (VHH)
VHH: QVQLQESGGGLVQPGGSLRLSCTASGSIFSATRMEWYRQAPGKQRELVAIVTSGGRTNYADSVNGRFTISRDNAKNTLYLQMNNLKPEDTAVYYCKFERYDYVNYWGRGTQVTVSS
B7: R3aP3E8 VHH (VHH)
VHH: QVQLQESGGGLVQPGGSLRLSCVASGSIFSIARMNWYRQAPGKQRELVAILNRAGRTDYADSVKGRFTISSDNAKTTVYLQMNSLKPEDTALYYCNLQTISYHDFWGQGTQVTVSS
B8: R3P3H12 VHH (VHH)
VHH: QVQLQESGGGLVQTGGSLRLSCTASGSIFDIVRGSWYRQAPGNQRELVAIITSGGATNYADSVAGRFTISRDSAWKALYLQMNSLKPEDTAVYFCNMESVRYRNYWGQGTQVTVSS
B9: R3aP9D10 VHH (VHH)
VHH: QVQLQESGGGLVQAGGSLRLSCAAPGFTFDAYAIGWFRQAPGKEREGVICLSPSDGSTYYADSVKGRFTISSDNAKNTVYLQMNSLKPEDTAVYYCATPSWCSLKADFGSWGQGTQVTVSS

Target: T1, human CD70, recombinant, N-terminally …
Assay: Octet BLI steady-state

Binder | Kd [nM]
B1 | 55.7
B2 | 41.7
B3 | 56.7

target: 41D12 (LwH); assay: Octet BLI

Binder | Kd [nM]
B4 | 0.001

Target: T1, human CD70, recombinant, N-terminally …
Assay: Octet BLI

Binder | Kd [nM]
B5 | 1.7
B6 | 0.025
B7 | 0.027
B8 | 0.16
B9 | 0.036
